Results on two substances are retold here after patent US20130108636A1.

The target in assay [1] is gp140Con-s. Briefly: SPR (Biacore X100), gp140 amine-coupled on a CM5 chip, single-cycle, monovalent model.
The target in assay [2] is gp140Con-s. As to the kind of experiment: SPR; target not given, taken from Example 5.

“D1D2 (from UniProt P01730 26-203) (receptor)” showed a Kd with gp140Con-s [1] of 7.8 nM. In the assay with gp140Con-s [2], the koff was determined as 0.0013 s⁻¹.
In the assay with gp140Con-s [2], mD1-CH2 (from UniProt P01730 26-124) gave a fold decrease of association rate constant compared to mD1 of 80 fold, a koff of 0.0009 s⁻¹ and a kon of 61000 M⁻¹ s⁻¹.
